# PMC8483785, “The plant nuclear lamina proteins NMCP1 and NMCP2 form a filamentous network with lateral filament associations” (Journal of Experimental Botany, 2021)
# Key:
# [1] = target: His-tagged DcNMCP1 (Daucus carota nuclear matrix constituent protein 1 with an N-terminal 6x His tag) (Daucus carota); assay: transmission electron microscopy after low-angle rotary metal shadowing; purified protein in urea dialysed against H2O (30-120 min) to induce refolding; sprayed in 40% glycerol on mica, platinum-carbon shadowing; monomers to coiled-coil dimer
# [2] = target: the molecule itself; assay: as above
stoichiometry N [1],Molecule,stoichiometry N [2]
2,His-tagged DcNMCP1 (Daucus carota nuclear matrix constituent protein 1 with an N-terminal 6x His tag) (from UniProt A0A166B1A6 1-1119) (natural protein),–
–,"His-tagged DcNMCP2 (Daucus carota nuclear matrix constituent protein 2 with an N-terminal 6x His tag) (natural protein, UniProt D2YZU8 1-927, looked up, Nuclear matrix constituent protein 2 (NMCP2) of Daucus carota; longest ORF of cDNA clone pD2m, amplified from the start codon to the stop codon; the PCR product included a 2808 bp ORF; GenBank AB514509; also called 6x His-tagged DcNMCP2; product of pDC2mN; not shown: His6, N-terminal, kept) MASPRLTVIQSEKTTVTSSRVSRSSMSDDDIWKRLQEAGFDEDSIKRRDKASLIAYITKLEAEIYDHQYQMGLLIMERKEWGSKFERVEAALNSAELMRKHDKNLYLKDLAEAKKREENLKKAIEIERECLANIEKTLHELRAEYAETKVMADSKLVEARSMIEDALKKLSEADAKKHAAESLEAEASRYHSAAERKLHEVEAREDDLRRRATSFKTECDTKEEEILHERRLLNERQKALQQSQQRLVDGQDLLNKRESHIFERTQELNRKEKELEASKLKQEEELQALVEQQANLETKASSLSLREEVITKSELEVKKREEELCVLQEKLEKKESERIQQLLANYEASLSMKKSEFEAELEVKRKSVHDDIENKRRDWELREVDLHHREELILEKEHELEMQSRAVVDKERDLAGRFSLLEEKENRLHAVEKEIESKEALLQKEKEEIISSKLDIQRSLDALEDEKKQLHHAEEKMEAMKSETNELCVLESKLKEEIETIRAQKQELETEADEMKELKLKFEIEWQSIDEKRKELQKEAECINEQRESLELTLKDERNSLKLEKDAMRDEYMRNNESLSRDREDFMKKMEHERSEWFSKIQKERSDYLLAIEVQSKDLEDRLAKRREEIESYLAERERAFEEEKKKELMRMDTLRETLARETEQVNAELNRLDTERREINLDRERRDREWAELNTLIEELKVQRQKLEKQRELMRADKEEILVQIEHLKQLEDLKVVPDRIALTDIQQSDLQPSKRVSARRSLKRQSGLDSGCRAEDNGNASSGNGSVILSPPLSSPFSWLKRCASSLLEQKVSNKKMRHSEEIITPSTIPARLNAPDDEHAVISANQQTPVHAKETTVYIDKIITIREVTSFNDAIVDGNNQNLEEALSQRAEEKLEDDNNIESEKLEKNGEVDPKIMQASLTEQ",2
